Reference: patent US8562986B2, “Engineered anti-alpha V-integrin hybrid antibodies” (Merck Patent GmbH, priority 2007, dated 2013)
“Also recorded” adds a separate entry of the source. Where two headings read alike, the source gives them in different places.

Key:
αvβ3 integrin = αvβ3 integrin (Homo sapiens, UniProt P06756); assay: Integrin binding ELISA
Description: Assay to determine binding of DI17E6 antibody to alpha V integrin receptor subunit The ability of the DI17E6 antibody to bind alpha V integrin was assayed using an ELISA. Briefly, various amounts of antibody were added to wells containing alpha V integrin, wells were then washed, and the bound antibody was assayed according to standard procedures.

[1] = system: human endothelial cell adhesion to vitronectin; assay: Endothelial cell adhesion to vitronectin; assay type: cell-based; settings: read-out: EC50, inhibition of human endothelial cell adhesion to vitronectin
HUVEC = assay: cells; settings: HUVEC, 10 ng/ml FGF-2, 72 hours, single agent
Description: The experimental design gives answer to the question whether blockade of the one lowered the IC50 of the other for blockade endothelial cell growth in the presence of tumor growth factors VEGFA and FGF2.
Plates were coated with 100 μl VN at 1 μg/ml in PBS per 96-well at 4° C. overnight. […] When added in combination the two test substances were mixed at the starting concentrations and the mixture was serially diluted as for the single agents alone. In some assays the chemotherapeutics were serially diluted in the presence of a constant amount of the alpha V blockers at the IC50 or IC70 concentrations. Plates were incubated for 72 hours, then relative cell number was determined by the addition of 20 ul/well Alamar Blue (Resazurin).
Points were run in duplicate or in triplicate. Reagent blanks, containing media plus Alamar Blue without cells, were run on each plate.
Tests were routinely run using HUVEC in media containing 10 ng/ml FGF-2 or HDMVEC in media containing 10 ng/ml VEGF.

[2] = system: platelet thrombus formation; assay: Thrombus formation in perfusion chamber; assay type: cell-based; settings: dose-dependent
Description: To exclude possible side effects of the antibody on platelets, EMD 525797 was evaluated for inhibition of platelet aggregation in vitro with human platelet rich plasma/collagen. […] Aggregation and activation studies were carried out using Platelet Rich Plasma (PRP). Thrombus formation by perfusion chamber with exposed subendothelial matrix.

[3] = Serum levels and anti-antibody response in monkey Matrigel plug experiment; assay type: in vivo; settings: monkeys, single i.v. injection, up to end of study
Description: Serums were collected at three different points (from the legs): immediately before antibody injection, immediately (1-2 minutes) after antibody injection, and at the end of the study before animal sacrifice. […] To detect given serum dilution) were found at the two different time points in serum: immediately after antibody administration and at the end of the study.

[4] = Single dose immunogenicity study in monkeys (sandwich ELISA); assay type: in vivo, monkey; settings: 1 mg/Kg single i.v., 1, 3 and 6 weeks
Description: In another study the pharmacy kinetic parameters of a single dose of DI-17E6 in monkeys was assessed and in addition, this study was planned to investigate the immunogenicity of DI-17E6. […] Length of the assay was 6 weeks. Serums were drawn pre-dose, and 1, 3, and 6 weeks after administration. Levels of monkey antibodies against DI-17E6 were analyzed. In this study, immunogenicity was directly addressed using a specific sandwich ELISA method designated for this type of studies (method not validated yet).

[5] = First clinical study in healthy volunteers, anti-drug antibodies; assay type: in vivo, human
Excerpt: This was meanwhile confirmed by a first clinical study carried out in the US in 2006/2007. […] In contrast to that, mouse 17E6 develops in animal models a strong immune response.

[6] = T-cell epitope mapping score; parameters: species or system human; settings: T-cell epitope scoring
M21-L tumors = assay: SCID mouse-human skin chimera model; assay type: in vivo; settings: 1 mg/dose i.p. 3 times per week, from one day after inoculation
Excerpt: Human skin containing human M21 melanoma cells were grafted by implantation/transplantation onto SCID or nude mice. Experimental tumors grew in this tissue after intradermal inoculation of tumor cells and the initial angiogenic vasculature was derived from vessels in the human skin. In the next experiment, the use of M21-L cells that have no av-integrins means that only those integrins expressed on the endothelial cells within the grafted human skin were targeted.

[7] = system: bFGF induced angiogenesis; assay: Matrigel plug model in monkeys; assay type: in vivo, Cynomologus monkeys; settings: 6 days
Description: Matrigel plugs containing bFGF were implanted s.c. into the abdomen of healthy Cynomologus monkeys. The animals were injected once with EMD 525797 i.v. at either 10 mg/Kg or 30 mg/Kg. Evaluation of angiogenesis was carried out 6 days after by quantification of the hemoglobin content in the Matrigel plugs.

CAKI-1 renal carcinoma = CAKI-1 renal carcinoma xenograft, monotherapy; assay type: in vivo, SCID or nude mice; settings: i.p. once per week
CAKI-1 xenograft tumors = assay: CAKI-1 renal cell carcinoma xenograft, with Erbitux; assay type: in vivo, mice; settings: 17.1 mg/kg loading then […] weekly i.p.
Description: The renal cell carcinoma cell line CAKI-1 was grown in RPMI containing 10% FCS (heat-inactivated) plus 2 mM glutamine. 1 mM sodium pyruvate. 100 units/ml penicillin and 100 ug/ml streptomycin. Cells were passaged at confluence by washing once in cation-free PBS followed by a 3 minute incubation in trypsin (0.5 ug/ml)/EDTA (0.2 ug/ml) solution in PBS at 37° C. Cells were recovered in medium, centrifuged and taken up in medium and counted.
The treatment started for all groups at day 0 of experiment (same day of cell injection).

[8] = 4-weeks / repeat-dose toxicology study; assay type: in vivo, cynomolgus monkey
bacteria = assay: Bacterial screening test for mutagenic potential; assay type: cell-based
ADCC and CDC = assay type: cell-based
αv-integrins = assay: Species specificity (immuno precipitation, western blotting); assay type: binding, human and monkey
Description: The molecular basis for this unusual profile has been unequivocally established by epitope mapping, sequence comparison, and x-ray co-crystallography. The epitope recognized by DI-17E6 is confirmed as unique to human and monkey by immuno precipitation and western blotting analysis performed with several species.

[9] = system: VEGF-induced migration of human endothelial cells on vitronectin; settings: read-out: EC50, block of VEGF-induced migration of human endothelial cells on vitronectin
[10] = system: human melanoma cell lines m21, SKMEL-23, SKMEI, MeWo, WM-793; settings: cisplatin, paclitaxel, vinblastin, vincristin, temoyolomide

αvβ3 integrin, sequence (P06756 31-889 limits assumed): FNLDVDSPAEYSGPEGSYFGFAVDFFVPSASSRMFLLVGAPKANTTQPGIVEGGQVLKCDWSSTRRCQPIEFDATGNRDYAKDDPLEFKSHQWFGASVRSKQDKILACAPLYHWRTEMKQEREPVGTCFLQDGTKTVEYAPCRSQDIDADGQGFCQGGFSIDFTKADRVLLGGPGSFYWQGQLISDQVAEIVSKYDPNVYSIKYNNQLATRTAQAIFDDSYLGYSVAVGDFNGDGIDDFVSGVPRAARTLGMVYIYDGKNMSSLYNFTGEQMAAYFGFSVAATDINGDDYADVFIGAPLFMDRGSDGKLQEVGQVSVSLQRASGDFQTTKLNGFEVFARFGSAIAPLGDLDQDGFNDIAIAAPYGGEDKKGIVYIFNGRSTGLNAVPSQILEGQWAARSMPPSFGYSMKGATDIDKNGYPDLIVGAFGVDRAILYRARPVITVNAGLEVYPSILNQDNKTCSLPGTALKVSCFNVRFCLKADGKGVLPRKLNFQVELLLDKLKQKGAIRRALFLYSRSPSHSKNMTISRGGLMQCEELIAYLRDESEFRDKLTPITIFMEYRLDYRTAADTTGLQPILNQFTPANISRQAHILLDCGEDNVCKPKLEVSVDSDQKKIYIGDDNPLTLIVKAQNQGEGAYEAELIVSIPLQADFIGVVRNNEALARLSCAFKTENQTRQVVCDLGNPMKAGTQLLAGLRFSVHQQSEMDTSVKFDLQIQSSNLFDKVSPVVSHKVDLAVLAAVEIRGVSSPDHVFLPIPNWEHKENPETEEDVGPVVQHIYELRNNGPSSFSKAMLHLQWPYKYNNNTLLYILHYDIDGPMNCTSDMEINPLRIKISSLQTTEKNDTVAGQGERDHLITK
αvβ3 integrin, sequence (P06756 891-1048 partner limits assumed): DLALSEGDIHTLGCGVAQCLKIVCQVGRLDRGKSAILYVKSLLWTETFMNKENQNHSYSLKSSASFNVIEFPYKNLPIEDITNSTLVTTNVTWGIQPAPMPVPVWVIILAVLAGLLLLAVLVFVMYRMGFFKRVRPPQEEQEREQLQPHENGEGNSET
αvβ3 integrin, sequence (P05106 27-788 partner): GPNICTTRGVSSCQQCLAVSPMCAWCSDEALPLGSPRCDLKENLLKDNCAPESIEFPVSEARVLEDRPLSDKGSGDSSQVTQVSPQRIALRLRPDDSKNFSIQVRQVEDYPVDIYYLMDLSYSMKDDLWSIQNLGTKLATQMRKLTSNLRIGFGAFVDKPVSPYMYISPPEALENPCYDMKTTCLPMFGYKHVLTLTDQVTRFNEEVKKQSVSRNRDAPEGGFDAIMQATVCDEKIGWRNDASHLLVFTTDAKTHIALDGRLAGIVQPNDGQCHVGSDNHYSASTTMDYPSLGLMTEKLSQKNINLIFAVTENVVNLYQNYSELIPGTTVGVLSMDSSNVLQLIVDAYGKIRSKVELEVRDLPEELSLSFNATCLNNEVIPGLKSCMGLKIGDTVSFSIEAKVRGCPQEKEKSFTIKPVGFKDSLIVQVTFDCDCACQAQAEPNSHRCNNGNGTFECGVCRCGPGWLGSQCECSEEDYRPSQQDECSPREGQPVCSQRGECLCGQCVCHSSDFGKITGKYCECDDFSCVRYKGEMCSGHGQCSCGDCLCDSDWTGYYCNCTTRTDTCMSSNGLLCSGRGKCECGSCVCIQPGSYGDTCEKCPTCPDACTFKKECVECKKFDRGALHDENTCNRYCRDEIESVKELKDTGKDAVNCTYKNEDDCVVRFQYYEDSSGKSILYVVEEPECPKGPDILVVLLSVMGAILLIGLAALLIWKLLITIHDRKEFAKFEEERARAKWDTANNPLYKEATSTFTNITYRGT

In the case of “DI-17E6: engineered de-immunized anti-αv integrin antibody: 17E6 CDRs, h425 light chain frameworks, human IgG2 with modified IgG1 hinge, N297Q, F296A”, the “binding to αvβ3 integrin (in words)” value (αvβ3 integrin) is reported as “similar”, the “binding to αvβ3 integrin (in words)” value (αvβ3 integrin; listed as DI-17E6-g2h(NtoQ)(C60Y)) is reported as “retains binding affinity” and the EC50 [1] is reported as about 10 nM. For the same substance, the IC50 (HUVEC) was 4 ng/mL, the “platelet thrombus formation in the perfusion chamber” value [2] was “blocks” and the “serum levels of antibody” value [3] was “high serum levels at each time-point”. For the same substance, the “monkey antibodies against the antibody” value [4] was “no monkey antibodies against DI-17E6 could be detected”, the “anti-drug antibodies in volunteers” value ([5]; group of 250 mg, 6 volunteers) was “one volunteer developed anti-drug antibodies” and the “anti-drug antibodies in volunteers” value ([5]; higher dose groups (500 mg and more)) was “no volunteer developed any immune response; also recorded: not detected”. For the same substance, the “Total score, heavy chain” value ([6]; heavy chain) was 85, the “Total score, light chain” value ([6]; light chain) was 92 and the “growth of M21-L tumors” value (M21-L tumors) was “inhibited growth”. For the same substance, the “new blood vessel formation (hemoglobin content of plugs)” value ([7]; 10 mg/Kg i.v. once) was “inactive”, the “new blood vessel formation (hemoglobin content of plugs)” value ([7]; 30 mg/Kg i.v. once) was “highly efficacious” and the tumor volume (CAKI-1 renal carcinoma; high dose (500 ug/ml)) was “complete reduction of tumor volume”. The tumor volume/size (CAKI-1 renal carcinoma; low (1 ug/ml) to medium (100 ug/ml serum) doses) was “can reduce tumor volume/size”, the “T/C at day 40, end of treatment” value (CAKI-1 xenograft tumors) was 25% and the serum trough values (CAKI-1 xenograft tumors; mice) was 100 µg/mL. For the same substance, the tolerability ([8]; 10, 33 and 100 mg/kg once weekly for 4 weeks, intravenous infusion (1 h)) was “well tolerated”, the “treatment-related effects in 4-weeks toxicology study” value ([8]; clinical observations, body weight, ECG, clinical pathology, organ weight, histopathology) was “did not reveal any treatment-related effects” and the safety pharmacology alerts ([8]; repeat-dose-toxicity studies in cynomolgus monkey) was “No safety pharmacology alerts”. The mutagenic potential (bacteria) was “not mutagenic”, the “ADCC and CDC” value (ADCC and CDC) was “neither antibody dependent cell cytotoxicity (ADCC) nor complement dependent cytotoxicity (CDC)” and the species specificity (αv-integrins) was “human and monkey αv-integrins only”. The EC50 [9] was about 50 nM and the “effect on the chemotherapeutic agent” value [10] was “not more than additive affects”.
